Assay [1] has as its target Elizabethkingia meningoseptica BioE (Elizabethkingia meningoseptica). The assay is described as follows: SEC; Superdex 75 (Increase) column, 20 mM Tris-HCl pH 8.0, 300 mM NaCl; oligomeric state judged from retention volume. (In general: Size exclusion chromatography separates by hydrodynamic size, large species first.)
For assay [2], the target named is Chlamydia psittaci BioE (Chlamydia psittaci). The assay is described as follows: SPR; […], single-cycle kinetics, 1:1 Langmuir fit; […]. For orientation: Surface plasmon resonance follows binding to a sensor surface in real time, without labels.

This is an account of results in article PMC12915131, “Balanced Expression of the Diiron Oxygenase BioE Is Essential for Biotin Homeostasis in Elizabethkingia meningoseptica” (Advanced Science, 2025).

stearoyl-ACP (E. coli acyl carrier protein carrying a C18 acyl group), sequence (P0A6A8 2-78): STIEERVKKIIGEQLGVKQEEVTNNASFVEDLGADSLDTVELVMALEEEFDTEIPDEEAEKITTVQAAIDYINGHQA

In turn, “Elizabethkingia meningoseptica BioE (enzyme)” had a stoichiometry N in assay [1] of 2. In turn, “stearoyl-ACP (E. coli acyl carrier protein carrying a C18 acyl group) (from UniProt P0A6A8 2-78) (natural protein)” gave a dissociation constant Kd in assay [2] of 0.203 µM. This counts as sub-micromolar.

Usually stoichiometry N stands for the number of molecules, sites or subunits per partner or assembly. As a reminder, the Kd is the constant that tells how readily two partners part at equilibrium. Low values mean tighter binding, high ones weaker binding.
